Measurements published in the RNAGym collection of RNA variant scans (doi:10.7554/elife.80360).

B1: Hairpin Ribozyme (parent)
chain: GUCCUCUUUCACGUGCGCGUGAAAGAGAGAAGUGAACCAGAGAAACACACGUUGUGGUAUAUUACCUGGUA

Variants of: B1
Assay: self-cleavage, relative activity (ratio to wild type); higher = more cleavage; co-transcriptional

Variant	self-cleavage
G32U G54C	0.1
A31G G69C	0.199
G32A G34U	0.798
G32A A71G	0.183
A30G A61G	0.224
A30G A39U	0.138
G32U G56U	0.145
G32C U67G	0.148
G32C U67A	0.134
G32A G57U	0.118
G32A U67C	0.131
G32A U67A	0.114
A31G A64U	0.215
A31C G69U	0.0958
G32U A41C	0.105
G32U A41U	0.0937
G32A U62G	0.0972
A31C G51C	0.182
A30G C50G	0.177
A31U C38A	0.0669
G32U U55C	0.165
G32U U55G	0.132
A31U U67C	0.0741
G32C A49U	0.0382

Variant	self-cleavage
G32C A49G	0.189
A30U G40U	0.129
A31G A59U	0.184
A31G A59G	0.205
G32U G68U	0.114
G32U G68A	0.0877
A30U C46G	0.252
A30U C46A	0.128
A31C A49C	0.149
A31C A49U	0.151
A31U G69U	0.105
U33A A59U	0.177
U33A A59C	0.143
A31C U33C	0.18
G32U A47C	0.167
A30U U63C	0.0881
A30U A47G	0.0659
G32C A59G	0.15
G32C A59U	0.103
A30G C65U	0.125
A31C C37G	0.146
A30G A71G	0.109
G32C A44U	0.22
G32C A44C	0.108

Variant	self-cleavage
A30G U33C	0.0632
A31U	0.129
A31G	0.729
A31C	0.131
G32U C46U	0.276
G32U U70A	0.111
A31C U53G	0.176
A31C U53C	0.0661
A31U G54U	0.0633
A31U G54A	0.151
A31G A39G	0.192
G32C A61C	0.222
A31U G56C	0.137
A30U U55C	0.179
A31C U67A	0.2
A31C U67C	0.0604
A31C A64C	0.134
G32U A35C	0.107
A30G U60A	0.125
A30G U60G	0.158
G32A G56U	0.221
G32A G56A	0.179
A31C G54C	0.198
A31C G54U	0.0998

Variant	self-cleavage
A31U U58A	0.026
G32U U60G	0.0848
A31U C65A	0.127
G32U G69C	0.136
A31C A39G	0.09
A31C A39U	0.183
G32U C65G	0.104
G32U C65U	0.115
G32U C65A	0.064
A30G G51U	0.157
G32U A61C	0.157
G32C A41G	0.128
A31G C46U	0.142
A31G C46G	0.0961
A31G C46A	0.155
A31U G34C	0
A31G U62C	0.0965
G32C G54C	0.16
A31U G68U	0.206
A31C A45U	0.0614
A31C A45G	0.0362
A31U U55A	0.0885
A31C A43G	0.107
A31C A43C	0.25

Variant	self-cleavage
A31C G34A	0.163
U33A A47C	0.0723
G32C C38A	0.061
A30U U60C	0.306
A30U U60G	0.0766
A31C A44C	0.128
G32A A35G	0.142
G32A A35U	0.153
A31G A44C	0.188
G32A G69A	0.0516
A30G A47C	0.152
A30G A47G	0.0575
A30U U33C	0.196
G32C U70G	0.0915
A30G A43U	0.221
G32U A36G	0.0896
G32U A36U	0.101
A31U A71C	0.227
A31U A71U	0.172
A31U A71G	0.226
G32C A35U	0.132
G32C G40C	0.109
U33A A45C	0.231
U33A A45G	0.127

Variant	self-cleavage
A30G U55A	0.122
A30G U55G	0.232
A30G C37U	0.136
A31G C66U	0.294
A30G U63G	0.101
A30G U63C	0.185
A30G U63A	0.0503
U33A A41U	0.111
G32A A61G	0.153
G32A A61C	0.0657
A30G G42C	0.169
A30G G42A	0.113
A31U C66G	0.0934
A31U A64U	0.134
A31G U67G	0.337
A31G C50A	0.146
A30U C66U	0.083
G32U G51C	0.148
A31U U60G	0.115
A30U G54C	0.0714
G32U U58A	0.0967
A31U A44C	0.101
A31U A44U	0.286
A30G G40U	0.0805

Variant	self-cleavage
G32A G42U	0.186
A31C U62G	0.223
G32A C66G	0.144
G32A C66A	0.147
A31U C46U	0.205
A31U C46A	0.236
A30G A49G	0.0332
A30G A49U	0.0894
A30G A49C	0.0806
A30U U58C	0.107
A30U U58G	0.155
A31U G32U	0.125
A31G G68U	0.113
A30G U58G	0.19
A30G U58A	0.0366
A31U C50U	0.24
A31U C50G	0.152
A31U C50A	0.113
A30G U52A	0.112
A30G U52C	0.116
A30G A64G	0.141
A30G A64C	0.0804
A30G A64U	0.159
A31C C38U	0.131

Variant	self-cleavage
G32C C37A	0.125
A30U G56C	0.15
G32A C48U	0.154
A30G G69U	0.0631
A31U A41U	0
A31G C37U	0.349
U33A A39U	0.0937
U33A A39G	0.122
G32U C50G	0.162
G32U C50U	0.119
G32C G69U	0.203
U33A A71U	0.137
U33A A71C	0.389
A31U A35G	0.244
A30U C37G	0.0899
A30U C37A	0.0959
A30U A64C	0.174
A30U A64G	0.106
G32A C65U	0.174
A31C G42C	0.163
A31C G42U	0.092
A30U A59C	0.153
A31C U55C	0.208
A31U A47U	0.141

Variant	self-cleavage
A31G G51C	0.495
G32U G42C	0.127
G32U G42U	0.107
G32U G57U	0.162
G32A A47U	0.125
G32A A47G	0.133
A31G G54U	0.223
A31G G54A	0.378
G32C U60A	0.203
G32C U60G	0.112
G32C A47C	0.161
G32C U33A	0.168
G32A G51A	0.156
A31U G42U	0.0854
A31G G42A	0.19
A31G G42U	0.19
A31U A61C	0.111
A31U A61U	0.138
A30U A36G	0.248
A30U A36C	0.0422
G32C C65A	0.0926
A30C U62G	0.134
G32U C37G	0.0126
G32U	0.13

Variant	self-cleavage
G32A	0.153
G32C	0.127
A30U C50A	0.221
A30U C50U	0.0896
A30U G34A	0.216
G32C A39G	0.111
G32C G34A	0.132
A30G A41U	0.244
G32C G68A	0.097
A31U C37U	0.187
A30G G56U	0.133
A30G G56A	0.0987
A31C C50U	0.0888
G32A U33A	0.139
G32C A36C	0.159
A30G C46A	0.202
G32C C46A	0.109
A30U A35U	0.196
A30U A35C	0.0881
G32U U62A	0.052
G32U U62C	0.0761
A31G A49C	0.162
A31G A49G	0.241
A31G G57A	0.0901

Variant	self-cleavage
A31G G57C	0.121
A30G U67C	0.119
A30G U67G	0.0921
A31U G51A	0
A30U C65A	0.14
A30G C66G	0.184
A30G C66A	0.192
A30G A31U	0.125
A30G A31C	0.111
A31C A41G	0.102
A31C A41U	0.109
G32U U52G	0.0995
G32U U52A	0.155
G32A U52A	0.24
G32A U52G	0.141
G32A C50U	0.101
A30U U52A	0.158
G32A A64U	0.204
U33A A44C	0.205
U33A A44G	0.16
A30G	0.153
A30U	0.142
G32A U70G	0.165
G32A A45G	0.117

Variant	self-cleavage
A31G U55G	0.0654
G32A C37G	0.0907
A30G G34U	0.932
A30U A31G	0.143
A31C A47U	0.192
A31C A47C	0.0953
A31G U33G	0
A31U A45C	0.191
A31C U52A	0.28
A31C U52C	0.196
A31G A47U	0.0555
A31G A47C	0.2
A31G A47G	0.117
A31G A43C	0.0574
A31G A43G	0.207
A31C U70A	0.131
G32A G40U	0.0775
G32A G40A	0.136
A31U U33A	0.0513
U33A A36C	0.0569
G32U C66A	0.229
G32C G56U	0.156
A30G A45U	0.177
A30G U62C	0.13

Variant	self-cleavage
A31U A49U	0.137
G32U A59G	0.181
G32C C66U	0.04
G32C G42U	0.213
G32C G42C	0.137
G32C G42A	0.156
A30G A44C	0.169
A30G A44G	0.108
G32C G51U	0.154
A31C A35G	0.13
A31G A41U	1.37
A31G A41G	0.712
A30G G54A	0.102
A31U A59G	0.0459
G32A U63G	0.126
A31G A71G	0.651
A31U A43G	0.134
A31G U53A	0.673
A31G U53C	0.846
G32A A49G	0.366
G32C U52A	0.0962
G32U A71U	0.131
G32C U58G	0.0601
G32U G34A	0.133

Variant	self-cleavage
A31C G40A	0.131
A31C G40U	0.0621
G32A U55C	0.161
G32A U55G	0.15
A30U A45G	0.236
A30U A45U	0.129
U33A C46U	0.0735
A31C U60A	0.157
A31G U63A	0.144
A31G U63C	0.105
G32A G68U	0.0821
G32A G68A	0.193
G32A G68C	0.1
G32A G54C	0.117
A31G A36G	0.57
G32A U60C	0.256
G32A U60G	0.197
A31C C48G	0.103
A31C C48A	0.115
A30U A41C	0.256
U33A A49G	0.0427
G32A C38U	0.0584
